Among the data in patent publication US20130336885A1 (Genentech, published 2013) are binding result and Kd values, retold here.

The target of assay [1] is T1, gD epitope-tagged LgR5 324-907 (amino acids 324-907 of SEQ ID NO: 67) on transiently transfected 293 cells (human, UniProt O75473 324-907).
T1 sequence: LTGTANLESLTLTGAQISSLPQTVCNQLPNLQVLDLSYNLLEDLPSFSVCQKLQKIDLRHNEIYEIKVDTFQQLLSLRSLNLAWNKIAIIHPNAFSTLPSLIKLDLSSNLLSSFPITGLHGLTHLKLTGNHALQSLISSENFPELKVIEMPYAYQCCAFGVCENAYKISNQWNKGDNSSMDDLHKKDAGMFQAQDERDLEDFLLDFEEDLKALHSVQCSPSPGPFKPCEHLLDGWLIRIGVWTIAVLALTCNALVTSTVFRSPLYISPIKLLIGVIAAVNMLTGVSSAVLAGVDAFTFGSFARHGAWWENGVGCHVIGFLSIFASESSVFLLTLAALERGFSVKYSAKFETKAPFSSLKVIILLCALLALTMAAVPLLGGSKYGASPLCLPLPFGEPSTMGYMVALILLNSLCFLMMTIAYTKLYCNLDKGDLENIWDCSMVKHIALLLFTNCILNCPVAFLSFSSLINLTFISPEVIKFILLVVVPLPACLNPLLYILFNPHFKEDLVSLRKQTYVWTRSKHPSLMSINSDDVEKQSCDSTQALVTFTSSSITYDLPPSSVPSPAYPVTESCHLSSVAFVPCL
Put plainly: FACS on transiently transfected 293 cells.

Assay [2] deals with T2, gD epitope-tagged LgR5 424-907 (amino acids 424-907 of SEQ ID NO: 67) on transiently transfected 293 cells (human, UniProt O75473 424-907).
T2 sequence: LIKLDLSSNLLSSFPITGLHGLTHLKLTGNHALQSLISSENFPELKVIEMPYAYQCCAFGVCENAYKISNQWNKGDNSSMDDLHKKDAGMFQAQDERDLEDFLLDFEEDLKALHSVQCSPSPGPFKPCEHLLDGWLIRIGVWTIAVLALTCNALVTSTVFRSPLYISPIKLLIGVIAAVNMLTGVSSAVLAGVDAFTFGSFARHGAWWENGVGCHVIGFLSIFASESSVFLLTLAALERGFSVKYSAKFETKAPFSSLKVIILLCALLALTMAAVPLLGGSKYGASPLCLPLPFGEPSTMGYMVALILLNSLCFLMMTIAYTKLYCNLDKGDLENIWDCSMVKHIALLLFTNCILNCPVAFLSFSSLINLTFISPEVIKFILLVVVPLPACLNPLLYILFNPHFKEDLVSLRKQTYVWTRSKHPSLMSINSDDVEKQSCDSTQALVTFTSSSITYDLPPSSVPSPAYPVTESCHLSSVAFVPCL
Put plainly: FACS on transiently transfected 293 cells.

In assay [3] the target is T3, gD epitope-tagged human LgR5 (full-length) expressed on transfected 293 cells (human, UniProt O75473 22-907).
T3 construct: also called gD-tagged human LgR5
T3 sequence: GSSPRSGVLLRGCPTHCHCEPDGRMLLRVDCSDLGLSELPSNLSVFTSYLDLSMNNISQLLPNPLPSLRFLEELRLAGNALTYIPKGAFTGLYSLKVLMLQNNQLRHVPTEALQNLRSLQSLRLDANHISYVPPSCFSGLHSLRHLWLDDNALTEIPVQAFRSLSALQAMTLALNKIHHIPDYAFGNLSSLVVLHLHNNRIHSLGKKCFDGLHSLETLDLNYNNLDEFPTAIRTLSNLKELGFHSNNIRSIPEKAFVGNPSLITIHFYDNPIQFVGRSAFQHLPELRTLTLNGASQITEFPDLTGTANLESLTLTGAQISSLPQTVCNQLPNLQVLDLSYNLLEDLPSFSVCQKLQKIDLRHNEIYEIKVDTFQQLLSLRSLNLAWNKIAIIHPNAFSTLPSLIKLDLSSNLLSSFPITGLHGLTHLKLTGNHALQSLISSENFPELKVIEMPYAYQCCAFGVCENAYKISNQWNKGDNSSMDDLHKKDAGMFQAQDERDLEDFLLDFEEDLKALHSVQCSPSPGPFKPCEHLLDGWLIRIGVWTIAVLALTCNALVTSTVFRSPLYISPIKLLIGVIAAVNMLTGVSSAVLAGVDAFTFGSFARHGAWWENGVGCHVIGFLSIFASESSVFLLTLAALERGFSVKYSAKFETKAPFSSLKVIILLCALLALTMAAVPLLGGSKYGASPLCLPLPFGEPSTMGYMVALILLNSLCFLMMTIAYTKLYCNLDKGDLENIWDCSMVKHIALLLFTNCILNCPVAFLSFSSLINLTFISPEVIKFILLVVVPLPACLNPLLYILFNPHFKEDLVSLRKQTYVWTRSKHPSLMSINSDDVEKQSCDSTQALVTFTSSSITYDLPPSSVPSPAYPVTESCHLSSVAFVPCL
Put plainly: Scatchard analysis, 125I-labelled antibody competed by unlabelled antibody on stably transfected 293 cells. As to the method: Scatchard analysis was performed following standard procedures (Holmes et al., Science 256:1205-1210 (1992)) to determine the relative binding affinities of YW353, ch8E11 and hu8E11v2 antibodies.
Anti-LgrS antibodies were [I¹²⁵] labeled using the indirect Iodogen method. […] Competition assay mixtures of 50 μL volume containing a fixed concentration of [I¹²⁵] labeled antibody and decreasing concentrations of serially diluted, unlabeled antibody were placed into 96-well plates. 293 cells stably expression human, rat, or mouse LgrS were cultured in growth media at 37° C. in 5% CO₂. Cells were detached from the flask using Sigma Cell Dissociation Solution and were washed with binding buffer, which consisted of Dulbecco's Modified Eagle Medium (DMEM) with 2% fetal bovine serum (FBS), 50 mM HEPES (pH 7.2) and 0.1% sodium azide. The washed cells were added to the 96 well plates at a density of 250,000 cells in 0.2 mL of binding buffer. The final concentration of the labeled antibody in each well was […]. The final concentration of the unlabeled antibody in the competition assay ranged from 500 nM through ten 2-fold diluation steps to a 0 nM buffer-only assay. Competition assays were carried out in triplicate. Competition assays were incubated for 2 hours at room temperature. After the 2-hour incubation, the competition assays were transferred to a Millipore Multiscreen filter plate (Billerica, Mass.) and washed 4 times with binding buffer to separate the free from bound [I¹²⁵] labeled antibody. The filters were counted on a Wallac Wizard 1470 gamma counter (PerkinElmer Life and Analytical Sciences Inc.; Wellesley, Mass.). The binding data was evaluated using NewLigand software (Genentech), which uses the fitting algorithm of Munson and Robard to determine the binding affinity of the antibody (Munson and Robard 1980)

B1: human antibody YW353 (antibody, human IgG1, kappa, V domains shown)
VH: EVQLVESGGGLVQPGGSLRLSCAASGFTFTSYSISWVRQAPGKGLEWVAEIYPPGGYTDYADSVKGRFTISADTSKNTAYLQMNSLRAEDTAVYYCAKARLFFDYWGQGTLVTVSS
VL: DIQMTQSPSSLSASVGDRVTITCRASQDVSTAVAWYQQKPGKAPKLLIYSASFLYSGVPSRFSGSGSGTDFTLTISSLQPEDFATYYCQQSYTTPPTFGQGTKVEIKR
notes: also called huYW353
Regarding B1, the binding result in assay [1] and in assay [2] was “no binding (tested: 10 µg/ml)” in each case. Also, the Kd in assay [3] turned out to be 0.2 nM.

B2: humanized monoclonal antibody 8E11.v2 (antibody, human IgG1, kappa, V domains shown)
VH: EVQLVQSGAEVKKPGASVKVSCKASGYTFSAYWIEWVRQAPGQGLEWIGEILPGSDSTDYNEKFKVRATFTSDTSTSTVYLELSSLRSEDTAVYYCARGGHYGSLDYWGQGTLVTVSS
VL: DIVMTQSPDSLAVSLGERATINCRASESVDNYGNSFMHWYQQKPGQPPKLLIYLASNLESGVPDRFSGSGSGTDFTLTISSLQAEDVAVYYCQQNYEDPFTFGQGTKVEIKR
notes: It was assessed as an IgG; also called hu8E11.v2; hu8E11v2
Regarding B2, the binding result in assay [1] and in assay [2] was “no binding (tested: 10 µg/ml)” in each case.

B3: chimeric monoclonal antibody 8E11 (antibody, human IgG1, V domains shown)
VH: QVQLQQSGTELMKPGASVKISCKATGYTFSAYWIEWIKQRPGHGLEWIGEILPGSDSTDYNEKFKVKATFSSDTSSNTVYIQLNSLTYEDSAVYYCARGGHYGSLDYWGQGTTLKVSS
VL: NIVLTQSPASLAVSLGQRATISCRASESVDNYGNSFMHWYQQKPGQPPKLLIYLASNLESGVPARFSGSGSRTDFTLTIDPVEADDAATYYCQQNYEDPFTFGSGTKVEIKR
notes: also called ch8E11; chimeric 8E11
In the case of B3, the binding result in assay [1] and in assay [2] was “no binding (tested: 10 µg/ml)” each time. The equilibrium dissociation constant (Kd) in assay [3] came out at 0.4 nM.
